Experiments:
[1] = target: T1, EpCAM (human (breast and colon cancer cell lines)) (UniProt P16422); assay: cell binding (cited); conditions: 2'-fluoropyrimidine (Methods: 2'-fluoropyrimidine or 2'-O-methyl-pyrimidine bases); 3' inverted dT; FFPE staining: PBS, 5 mM MgCl2, 0.1 mg/mL tRNA, 1 mg/mL BSA, 10% dextran sulphate, 500 ug/mL heparin, 100 nM aptamer, 15 min, 37 C; flow cytometry: 100 nM …; cited from earlier work
T1 sequence: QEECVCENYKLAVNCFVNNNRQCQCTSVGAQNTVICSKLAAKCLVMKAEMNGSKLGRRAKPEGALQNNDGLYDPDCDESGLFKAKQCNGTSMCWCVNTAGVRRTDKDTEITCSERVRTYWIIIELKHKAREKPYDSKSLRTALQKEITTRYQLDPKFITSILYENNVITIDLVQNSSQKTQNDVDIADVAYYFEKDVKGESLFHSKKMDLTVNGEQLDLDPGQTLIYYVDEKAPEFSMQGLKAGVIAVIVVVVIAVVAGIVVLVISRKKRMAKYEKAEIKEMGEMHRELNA

[2] = target: T1, EpCAM (human (breast and colon cancer cell lines)); assay: cell binding (method not given); conditions: 2'-fluoropyrimidine (Methods: 2'-fluoropyrimidine or 2'-O-methyl-pyrimidine bases); 3' inverted dT; FFPE staining: PBS, 5 mM MgCl2, 0.1 mg/mL tRNA, 1 mg/mL BSA, 10% dextran sulphate, 500 ug/mL heparin, 100 nM aptamer, 15 min, 37 C; flow cytometry: 100 nM …

Row | Sequence | Kd [1] [µM] | Kd [2] [µM]
1 | GCGACUGGUUACCCGGUCG [DT3] | 0.158 | 
2 | ACGUAUCCCUUUUCGCGUA [Ep23] |  | 0.037

Source: PMC3584034
